This note sets out measurements from patent publication US20030143644A1.

Assay [1] addresses cytoskeleton. Kind of assay: cell-based or functional assay.
The target of assay [2] is cytoskeleton. Kind of assay: immunoblot densitometry of the pellet after anti-αβTCR plus GAM ligation, thymocytes. On the technique in general: In western blotting, separated proteins are transferred to a membrane and probed.
The target in assay [3] is cytoskeleton. Kind of assay: immunoblot densitometry of the pellet after anti-αβTCR plus GAM ligation, lymph node T cells.
In assay [4] the target is cytoskeleton. Kind of assay: immunoblot densitometry of the detergent insoluble pellet, resting cells.
Assay [5] concerns the target cytoskeleton. Kind of assay: immunoblot densitometry of the detergent insoluble pellet, TCR ligated against non-ligated.

Chain of TCR-ζ (P24161 22-164 limits assumed): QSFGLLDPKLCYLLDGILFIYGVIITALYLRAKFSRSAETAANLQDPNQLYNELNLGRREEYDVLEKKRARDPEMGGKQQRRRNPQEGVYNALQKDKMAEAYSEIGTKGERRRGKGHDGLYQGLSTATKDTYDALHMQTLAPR

Consider “CD8/ζD67-126 (from UniProt P01731 28-217; P24161 52-164) (receptor)”, for which, in the assay with cytoskeleton [1], the IL-2 production (fold less IL-2 than wild-type CD8/ζ) was 40.

“CD8/ζY153E (from UniProt P01731 28-217; P24161 52-164) (receptor)” had an IL-2 production (fold less IL-2 than wild-type CD8/ζ) with cytoskeleton [1] of 100.

With “TCR-ζ (from UniProt P24161 22-164) (receptor)”, the percent of TCR-ζ in the detergent insoluble pellet (activated thymocytes) with cytoskeleton [2] was determined as 16%. Also, the percent of TCR-ζ in the detergent insoluble pellet (activated lymph node T cells) with cytoskeleton [3] is 43%. In the assay with cytoskeleton [4], this substance showed a percent of TCR-ζ in the detergent insoluble pellet (resting thymocytes and lymph node T cells) of 7%. Besides, in the assay with cytoskeleton [5], the fold increase in the pellet against non-ligated samples (lymph node T cells) stood at 6 fold and the fold increase in the pellet against non-ligated samples (thymocytes) was 2 fold.
